Bridge positions count the residues as written; N and C are the ends. Square brackets hold non-standard residues; d marks the D form. Ends that are not written are not given here. Ala(1-amidino-4-piperidyl) = N=C(N)N1CCC(C[C@H](N)C(=O)O)CC1; Phe(4-guanidino) = N=C(N)Nc1ccc(C[C@H](N)C(=O)O)cc1

This note sets out measurements from PMC4278837, “A Cyclic Peptidic Serine Protease Inhibitor: Increasing Affinity by Increasing Peptide Flexibility” (PLoS ONE, 2014).

The target of one assay is huPA-H99Y-K143A (human). Description: enzyme inhibition (steady state, chromogenic substrate S-2444); about 2 nM enzyme (purified or conditioned medium of transfected cells) pre-incubated 15 min with varied peptide in HBS (10 mM HEPES pH 7.4, 140 mM NaCl) with 0.1% BSA at 37°C; substrate about KM; fit for competitive inhibition; highest peptide concentration 400 µM.
For another assay, the target named is huPA-H99Y-Q192A (human). The description is as above.
The target of another assay is huPA-H99Y-V41A (human). The description is as above.
The target of another assay is huPA-H99Y-R35A (human). The description is as above.
Another assay has as its target T1, muPA-S190A (murine).
T1 construct: site directed mutant of full length muPA; numbers count on: chymotrypsin numbering; Two-chain form after plasmin; source: HEK293 6E, transfected; treated with plasmin
The description is as above.

In a further assay the target is T2, muPA-V213T (murine).
T2 construct: site directed mutant of full length muPA; numbers count on: chymotrypsin numbering; Two-chain form after plasmin; source: HEK293 6E, transfected; treated with plasmin
The assay is described as above.

Assay [1] addresses T3, murine urokinase-type plasminogen activator (muPA) wild type (murine, UniProt P06869 21-433).
T3 construct: cDNA encoding full length muPA; Two-chain form after plasmin; also called muPA wt; muPA-wt; source: HEK293 6E, transfected; treated with plasmin
Description: SPR; Biacore T200; uPA variant amine-coupled to a CM5 chip (about 500 RU); peptides injected in HBS with 0.1% BSA, 30 µL/min, 25°C, pH 7.4; 1:1 kinetic fit; KD = koff/kon. As to conditions: both partners purified.

For assay [2], the target named is T4, huPA-H99Y (full length human urokinase-type plasminogen activator with H99Y) (human). Described as above. As to conditions: both partners purified.
The next assay deals with T5, muPA-Y99A (murine).
T5 construct: site directed mutant of full length muPA; numbers count on: chymotrypsin numbering; Two-chain form after plasmin; source: HEK293 6E, transfected; treated with plasmin
Description: enzyme inhibition (steady state, chromogenic substrate S-2444); about 2 nM enzyme (purified or conditioned medium of transfected cells) pre-incubated 15 min with varied peptide in HBS (10 mM HEPES pH 7.4, 140 mM NaCl) with 0.1% BSA at 37°C; substrate about KM; fit for competitive inhibition; highest peptide concentration 400 µM.

The target of a further assay is T6, muPA-K143A (murine).
T6 construct: site directed mutant of full length muPA; numbers count on: chymotrypsin numbering; Two-chain form after plasmin; source: HEK293 6E, transfected; treated with plasmin
The assay is described as above.

In the next assay the target is T7, muPA-K41A (murine).
T7 construct: site directed mutant of full length muPA; numbers count on: chymotrypsin numbering; Two-chain form after plasmin; source: HEK293 6E, transfected; treated with plasmin
Described as above.

In assay [3] the target is recombinant catalytic domain of huPA-H99Y (residues 159-411) (human, UniProt P00749 179-431). Description: ITC; MicroCal ITC200; peptide injected into 5-50 µM huPA-H99Y catalytic domain; 20 mM sodium phosphate pH 7.4, 140 mM NaCl, 25°C; one-binding-site model. As to conditions: both partners purified.
The target of assay [4] is T4, huPA-H99Y (full length human …). Description: enzyme inhibition (steady state, chromogenic substrate S-2444); about 2 nM enzyme (purified or conditioned medium of transfected cells) pre-incubated 15 min with varied peptide in HBS (10 mM HEPES pH 7.4, 140 mM NaCl) with 0.1% BSA at 37°C; substrate about KM; fit for competitive inhibition; highest peptide concentration 400 µM.

Assay [5] has as its target T3, murine urokinase-type plasminogen …. Described as above.

T3 sequence (P06869 21-433): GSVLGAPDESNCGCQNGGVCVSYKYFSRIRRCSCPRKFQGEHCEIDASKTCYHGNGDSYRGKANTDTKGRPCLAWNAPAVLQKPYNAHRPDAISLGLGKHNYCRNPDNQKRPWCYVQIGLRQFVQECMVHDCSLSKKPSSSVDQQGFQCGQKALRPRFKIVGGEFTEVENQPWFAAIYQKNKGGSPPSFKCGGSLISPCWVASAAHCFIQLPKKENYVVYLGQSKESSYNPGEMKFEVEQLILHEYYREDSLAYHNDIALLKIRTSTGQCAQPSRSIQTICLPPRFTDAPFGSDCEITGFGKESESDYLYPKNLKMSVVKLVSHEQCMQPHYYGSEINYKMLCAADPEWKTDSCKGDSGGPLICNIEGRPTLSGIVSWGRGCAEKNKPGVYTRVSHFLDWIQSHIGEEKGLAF

Turning to CPAYS[Ala(1-amidino-4-piperidyl)]YLDC (disulfide 1-10; not fully specified) [mupain-1-16], the Ki stood at 1130 nM with huPA-H99Y-K143A; 2710 nM with huPA-H99Y-Q192A; 1950 nM in the assay with huPA-H99Y-V41A; 2500 nM in the assay with huPA-H99Y-R35A; 352 nM with muPA-S190A; 13 nM with muPA-V213T. The Ki came to 1240 nM with muPA-Y99A, 130 nM with muPA-K143A and 300 nM with muPA-K41A. The Kd was found to be 89.4 nM in [1], 844 nM in assay [2] and 380 nM in assay [3]. Besides, the koff was determined as 0.00671 s⁻¹ in [1] and 0.0893 s⁻¹ in assay [2]. Besides, the kon in assay [1] came to 89800 M⁻¹ s⁻¹; in [2], 107000 M⁻¹ s⁻¹. Further, the dH in [3] was -7.93 kcal/mol. In addition, the “stoichiometry N” value in assay [3] amounted to 0.87.

On to CPAYS[Ala(1-amidino-4-piperidyl)]YLAC (disulfide 1-10; not fully specified) [Mupain-1-16 D9A], for which the Ki in the assay with huPA-H99Y-K143A was 188 nM; in [4], 309 nM; in the assay with huPA-H99Y-Q192A, 438 nM; in the assay with huPA-H99Y-V41A it was 480 nM; in the assay with huPA-H99Y-R35A, 174 nM; with muPA-S190A, 529 nM. The inhibitory constant (Ki) with muPA-V213T was found to be 14 nM; in assay [5], 76 nM; with muPA-Y99A it was 1360 nM; in the assay with muPA-K143A, 100 nM; in the assay with muPA-K41A, 14 nM. The values for the Kd in [1], in assay [2] and in [3] were 21.3 nM, 71.8 nM and 134 nM, respectively. Also, the koff in assay [1] was 0.0122 s⁻¹; in assay [2], 0.0333 s⁻¹. Besides, the kon in [1] is 579000 M⁻¹ s⁻¹; in assay [2], 465000 M⁻¹ s⁻¹. The dH in [3] was -11.1 kcal/mol. For the same molecule, the “stoichiometry N” value in [3] is 0.88.

B1: mupain-1 (peptide)
peptide: CPAYSRYLDC
modifications: disulfide 1-10 (inferred)
notes: Synthesised on a resin with Rink amide linker; source: synthetic peptide (solid-phase synthesis, HPLC purified)
With B1, in assay [1], the affinity, expressed as Kd, was 398 nM; the off-rate (koff) amounted to 0.0364 s⁻¹; the kon worked out at 91400 M⁻¹ s⁻¹.

B2: Mupain-1 D9A (peptide)
peptide: CPAYSRYLAC
modifications: disulfide 1-10 (inferred)
notes: mupain-1 with D9A; Rink amide linker resin; C-terminal amide surmised; source: synthetic peptide (solid-phase synthesis, HPLC purified)
In assay [1], B2 displayed a Kd of 417 nM, an off-rate constant (koff) of 0.0401 s⁻¹ and a kon of 98500 M⁻¹ s⁻¹.

With CPAYS[Phe(4-guanidino)]YLDC (disulfide 1-10) [mupain-1-12], the Ki with huPA-H99Y-K143A was found to be 2140 nM; with huPA-H99Y-Q192A, 2350 nM; in the assay with huPA-H99Y-V41A, 1600 nM; in the assay with huPA-H99Y-R35A it was 3260 nM; with muPA-S190A, 2300 nM; in the assay with muPA-V213T, 86 nM. Also, the Ki came to 5200 nM in the assay with muPA-Y99A, 1000 nM with muPA-K143A and 1720 nM with muPA-K41A. Moreover, the Kd was determined as 138 nM in assay [1], 1210 nM in assay [2] and 400 nM in [3]. Moreover, the results for the koff in [1] and in assay [2] were 0.0192 s⁻¹ and 0.246 s⁻¹, respectively. For the same molecule, the kon in [1] is 156000 M⁻¹ s⁻¹; in assay [2] it was 206000 M⁻¹ s⁻¹. Moreover, the dH in assay [3] is -10.5 kcal/mol. For the same molecule, the “stoichiometry N” value in [3] came out at 0.85.
